PMC4695337, “Crystal Structure of a Eukaryotic GEN1 Resolving Enzyme Bound to DNA”
Substitutions are numbered along the chain they refer to.

Columns and labels:
[1] = target: T1, CtGEN1 (Chaetomium thermophilum? (printed C. …, UniProt G0RYN2 1-487)); assay: crystal structure; Mg2+ (2 mM MgCl2); EMSA fitted to Hill equation, protein 2.1-43 nM (monomer); binding buffer and temperature not in material. Crystals: 100 mM HEPES pH 7.5, 2 mM MgCl2, 20% PEG10000, 7 C; conditions: protein: recombinant; tags: C-terminal His6; r strand 1-14 paired with h 17-30 (14 bp); r 16-30 paired with x 1-15 (15 bp); mismatch r15/x16
T1 sequence: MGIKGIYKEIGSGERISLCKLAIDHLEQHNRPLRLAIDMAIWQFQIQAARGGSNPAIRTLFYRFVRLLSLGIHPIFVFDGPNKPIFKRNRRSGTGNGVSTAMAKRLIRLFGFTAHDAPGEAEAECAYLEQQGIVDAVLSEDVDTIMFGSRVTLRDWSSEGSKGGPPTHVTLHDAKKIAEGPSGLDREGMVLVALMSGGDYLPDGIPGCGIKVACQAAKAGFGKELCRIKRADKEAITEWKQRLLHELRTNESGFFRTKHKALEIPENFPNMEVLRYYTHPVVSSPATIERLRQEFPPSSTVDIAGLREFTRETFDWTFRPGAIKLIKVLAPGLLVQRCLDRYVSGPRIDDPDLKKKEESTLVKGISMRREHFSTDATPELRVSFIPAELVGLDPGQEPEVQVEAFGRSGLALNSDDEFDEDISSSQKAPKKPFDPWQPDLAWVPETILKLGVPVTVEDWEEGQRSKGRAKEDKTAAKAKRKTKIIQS

[2] = target: T2, CtGEN1 D143A (Chaetomium thermophilum? (printed C. …, UniProt G0RYN2 1-487, D143A)); assay: EMSA; EMSA fitted to Hill equation, protein 2.1-43 nM (monomer); binding buffer and temperature not in material. Crystals: 100 mM HEPES pH 7.5, 2 mM MgCl2, 20% PEG10000, 7 C; conditions: protein: recombinant; tags: C-terminal His6; chain copies: 2; four-way junction of 4 strands (b/h/r/x)
T2 sequence: T1 sequence with D143A

[3] = target: T3, CtGEN1 D79A (Chaetomium thermophilum? (printed C. …, UniProt G0RYN2 1-487, D79A)); assay: as above; conditions: protein: recombinant; tags: C-terminal His6; chain copies: 2; four-way junction of 4 strands (b/h/r/x)
T3 sequence: T1 sequence with D79A

[4] = target: T4, CtGEN1 E122A (Chaetomium thermophilum? (printed C. …, UniProt G0RYN2 1-487, E122A)); assay: as above; conditions: protein: recombinant; tags: C-terminal His6; chain copies: 2; four-way junction of 4 strands (b/h/r/x)
T4 sequence: T1 sequence with E122A

[5] = target: T5, CtGEN1 D38A (Chaetomium thermophilum? (printed C. …, UniProt G0RYN2 1-487, D38A)); assay: as above; conditions: protein: recombinant; tags: C-terminal His6; chain copies: 2; four-way junction of 4 strands (b/h/r/x)
T5 sequence: T1 sequence with D38A

[6] = target: T1, CtGEN1; assay: as above; conditions: protein: recombinant; tags: C-terminal His6; four-way junction of 4 strands (b/h/r/x)
[7] = target: T6, CtGEN1 D141A (Chaetomium thermophilum? (printed C. …, UniProt G0RYN2 1-487, D141A)); assay: as above; conditions: protein: recombinant; tags: C-terminal His6; chain copies: 2; four-way junction of 4 strands (b/h/r/x)
T6 sequence: T1 sequence with D141A

[8] = target: T7, CtGEN1 E120A (Chaetomium thermophilum? (printed C. …, UniProt G0RYN2 1-487, E120A)); assay: as above; conditions: protein: recombinant; tags: C-terminal His6; chain copies: 2; four-way junction of 4 strands (b/h/r/x)
T7 sequence: T1 sequence with E120A

[9] = target: T1, CtGEN1; assay: crystal structure; Mn2+ (1 mM MnCl2 soak); EMSA fitted to Hill equation, protein 2.1-43 nM (monomer); binding buffer and temperature not in material. Crystals: 100 mM HEPES pH 7.5, 2 mM MgCl2, 20% PEG10000, 7 C; conditions: protein: recombinant; tags: C-terminal His6; 14 bp with 3' overhang 1 nt on r strand

B1: junction 3 resolution product (crystal) (structured_DNA)
DNA 1: TCCAACCACCGCTCAACTCAACTGCAGTCT
DNA 2: GAGCGGTGGTTGGA
DNA 3: AGACTGCAGTTGAGTC
modifications: 5'-phosphate at cleaved 5' end of h strand product
[1]
  binding result: binds

B2: four-way junction 3 (50 nt strands) (structured_DNA)
DNA 1: GGCTAAGGGATCCGTCCTAGCAAGGGGCTGCTACCGGAGGCTTACATCGG
DNA 2: CCGATGTAAGCCTCCGGTAGCAGCCTGAGCGGTGGTTGGATGTTGACTGC
DNA 3: GCAGTCAACATCCAACCACCGCTCAACTCAACTGCAGTCTAGATGGACTG
DNA 4: CAGTCCATCTAGACTGCAGTTGAGTCCTTGCTAGGACGGATCCCTTAGCC
[2]
  Kd: 7.1 ± 0.01 nM
[3]
  Kd: 5.9 ± 0.05 nM
[4]
  Kd: 4.6 ± 0.04 nM
[5]
  Kd: 6.2 ± 0.05 nM
[6]
  Kd: 7.7 ± 0.01 nM
[7]
  Kd: 10 ± 0.01 nM
[8]
  Kd: 6.5 ± 0.1 nM

B3: R-stem duplex as modeled in 5CNQ (dsDNA)
DNA 1: TCCAACCACCGCTCA
DNA 2: GAGCGGTGGTTGGA
modifications: 5'-phosphate at cleaved 5' end of h strand product
[9]
  binding result: binds
